Source: US20220112288A1 (published 2022)
Positions count from the first letter of the chain named.

B1: 75110_04F22A (antibody, V domains shown)
VH: EVQLVESGGGLVQPGGSLRLSCAASGFTFSSYDIHWVRQATGKGLEWVSTIGTAGDTYYPGSVKGRFTISRENAKNSLYLQMNSLRAGDTAVYYCARGGYYYYGMDVWGQGTTVTVSS
VL: EIVLTQSPGTLSLSPGERATLSCRASQSVYSSYLAWYQQKPGQAPRLLIYGASSRATGIPDRFSGSGSGTDFTLTISRLEPEDFAVYYCQQFGTSPFTFGPGTKVDIK
notes: Tested as non-clonal AlivaMab Mouse Kappa hybridoma supernatant: human variable domains and human kappa, mouse Fc
B2: 75110_01J17A (antibody, IgG1, V domains shown)
VH: B1 VH with I34M, A40G, G55D, K75E, Y100D
VL: B1 VL with T5A, S31I, S77T, T94S, I107F
notes: as for B1
B3: 75110_05K11A (antibody, IgG1, V domains shown)
VH: B1 VH with I34M, A40P, G61A, Y100F
VL: B1 VL with A19V, Y30S, S31N, S32T, A85V, F92H, T94S
notes: as for B1
B4: 75110_01K10A (antibody, V domains shown)
VH: B1 VH with G10A, S30R, S31N, I34M, Y100D
VL: B1 VL with G9D, V29L, Y30S, S32V, S66T, F92Y, T94S
notes: as for B1
B5: 75110_04P06A (antibody, IgG1, V domains shown)
VH: B1 VH with S31N, I34M, Y100D
VL: B1 VL with G9D, V29L, Y30S, S32V, S77N, A85V, F92Y, T94S
notes: as for B1
B6: 75110_07E04A (antibody, IgG1, V domains shown)
VH: B1 VH with A24V, I34M, N76K, S77F
VL: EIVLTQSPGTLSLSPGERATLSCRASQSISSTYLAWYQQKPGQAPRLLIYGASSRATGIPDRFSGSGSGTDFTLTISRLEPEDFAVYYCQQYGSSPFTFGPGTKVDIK
notes: as for B1
B7: 75110_01N04A (antibody, IgG1, V domains shown)
VH: B1 VH with S31N, I34M, Y100D, Y101F, M105L
VL: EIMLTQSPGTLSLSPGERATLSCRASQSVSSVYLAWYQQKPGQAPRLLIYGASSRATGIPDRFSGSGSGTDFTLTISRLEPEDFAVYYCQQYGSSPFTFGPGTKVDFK
notes: as for B1
B8: 75110_01G11A (antibody, IgG1, V domains shown)
VH: B1 VH with I34M, K75R, Y79F, Y100D
VL: B1 VL with S14F, S28N, V29T, S54N, F92H
notes: as for B1
B9: 75110_12C19A (antibody, IgG1, V domains shown)
VH: EVQLVESGGGLVQPGGSLRLSCAASGFTFSSYWMSWVRQAPGKGLEWVANIKEDGSDKYYVDSVKGRFTISRDNAKNSLYLQMNSLRAEDTAVHYCVREGGQWLALDYWGQGTLVTVSS
VL: DIQMTQSPSSVSGSVGDRVTITCRASQGISSWLAWYQQKPGKAPKLLIYGASSLQSGVPSRFSGSGSGTDFTLTISSLQPEDFVTYYCQQANSFPWTFGQGTKVEIK
notes: as for B1
B10: 75110_13P22A (antibody, IgG1, V domains shown)
VH: QVQLQQWGAGLLKPSETLSLTCAAYGGSFSGYYWSWIRQSPGKGLEWIGEINQSGNTNYNPSLKSRVTISADTSKNQFSLKLSSVTAADTAVYYCARVLNWFDYWGQGILVTVSS
VL: B9 VL with G13A, S31D, P40S, K45D, Y49F, G50A, V84A, W96Y, V104L
notes: as for B1
B11: 75110_12K21A (antibody, V domains shown)
VH: B10 VH with A24V, Y25S, S40P, Q53H, N56S, Y59C, A71V, K75N, W101Y, I109T
VL: DIQMTQSPSSVSASVGDRVTITCRASPDIANWLAWYQQKPGKAPELLIYAASSLQSGVPSRFSGSGSGTDFTLTISSLQPEDFATYFCQQANSFPLTFGGGTKVESK
notes: as for B1
B12: 75110_13P21A (antibody, IgG1, V domains shown)
VH: B10 VH with A24V, Y25S, S40P, Q53H, N56S, Y59C, A71V, K75N, W101Y, I109T
VL: B11 VL
notes: as for B1
B13: 75110_13C13A (antibody, IgG1, V domains shown)
VH: B10 VH with A24V, Y25S, S40P, Q53H, N56S, Y59C, A71V, V92M, W101F, I109T
VL: B11 VL with S7T, D28G, A30S
notes: as for B1

Molecular target: T1, human CD4 on cells (SKW3 cells; human PBMCs) (human, UniProt P01730 26-458)
T1 construct: whole, on cells; SKW3 CD4 knockout cells served as the negative cell line; also called hCD4
Test: FACS confirmation, supernatant on SKW3 WT cells, anti-human kappa FITC; background gMFI 2500

Row | SKW3 WT anti-hu Kappa FITC, gMFI [gMFI] | Binder
1 | 5580 | B1
2 | 5780 | B2
3 | 6700 | B3
4 | 5940 | B4
5 | 5600 | B5
6 | 6360 | B6
7 | 5640 | B7
8 | 5000 | B8
9 | 6850 | B9
10 | 5910 | B10
11 | 5620 | B11
12 | 7580 | B12
13 | 7240 | B13

Molecular target: T1, human CD4 on cells (SKW3 cells; human …)
Test: FACS confirmation, supernatant on SKW3 WT cells, anti-mouse Fc 647; background gMFI 3300

Row | SKW3 WT anti-mFc 647, gMFI [gMFI] | Binder
14 | 26900 | B1
15 | 31600 | B2
16 | 35900 | B3
17 | 24300 | B4
18 | 24500 | B5
19 | 22000 | B6
20 | 28000 | B7
21 | 19200 | B8
22 | 29300 | B9
23 | 18200 | B10
24 | 25000 | B11
25 | 30900 | B12
26 | 23900 | B13

Molecular target: T1, human CD4 on cells (SKW3 cells; human …)
Test: FACS binning on SKW3 cells pre-incubated with supernatant; competitor OKT4a read with anti-human A647 secondary; background 5000, max binding 35000

Row | SKW3 FACS Binning OKT4a anti-hu A647 Secondary | Binder
27 | 40200 | B1
28 | 37700 | B2
29 | 37600 | B3
30 | 30000 | B4
31 | 37400 | B5
32 | 31300 | B6
33 | 38100 | B7
34 | 30100 | B8
35 | 7140 | B9
36 | 6220 | B10
37 | 8240 | B11
38 | 6870 | B12
39 | 5500 | B13

Molecular target: T2, huCD4-HIS (human, UniProt P01730 26-390, limits assumed)
T2 construct: the ELISA binning is not described in the text of this stretch
Test: ELISA binning, competitor Ibalizumab; 100 ng/mL huCD4-HIS, anti-HIS HRP detection; background 45, max binding 3000000

Row | Ibalizumab ELISA binning signal | Binder
40 | 748000 | B1
41 | 755000 | B2
42 | 1.18e+06 | B3
43 | 890000 | B4
44 | 1.22e+06 | B5
45 | 1.73e+06 | B6
46 | 1.04e+06 | B7
47 | 495000 | B8
48 | 1.51e+06 | B9
49 | 1.16e+06 | B10
50 | 1.41e+06 | B11
51 | 678000 | B12
52 | 1.17e+06 | B13

Molecular target: T1, human CD4 on cells (SKW3 cells; human …)
Test: FACS binning on SKW3 cells pre-incubated with supernatant; competitor RPA-T4-PE-Dazzle 594, its signal read; background 783, max binding 15000

Row | SKW3 FACS Binning RPA-T4-PE-Dazzle 594 | Binder
53 | 2290 | B1
54 | 1950 | B2
55 | 2190 | B3
56 | 1510 | B4
57 | 2190 | B5
58 | 2420 | B6
59 | 2240 | B7
60 | 2160 | B8
61 | 11900 | B9
62 | 19000 | B10
63 | 10900 | B11
64 | 11900 | B12
65 | 20800 | B13

Molecular target: T1, human CD4 on cells (SKW3 cells; human …)
Test: FACS primary screen, non-clonal hybridoma supernatant, SKW3 vs SKW3 CD4 knockout cells, anti-human kappa FITC

Row | SKW3 WT vs KO anti-hKappa-FITC [fold] | Binder
66 | 1.8 | B1
67 | 2.1 | B2
68 | 1.8 | B3
69 | 2.2 | B4
70 | 1.6 | B5
71 | 1.8 | B6
72 | 1.9 | B7
73 | 2 | B8
74 | 2.3 | B9
75 | 2.8 | B10
76 | 2.8 | B11
77 | 2.4 | B12
78 | 3.1 | B13

Molecular target: T1, human CD4 on cells (SKW3 cells; human …)
Test: FACS confirmation, supernatant on human PBMCs, anti-mouse Fc 647, CD4+ gate

Row | PBMCs, anti-mFc 647 CD4+ gate - RL1 Binding | Binder
79 | 286000 | B1
80 | 280000 | B2
81 | 267000 | B3
82 | 283000 | B4
83 | 292000 | B5
84 | 206000 | B6
85 | 210000 | B7
86 | 244000 | B8
87 | 341000 | B9
88 | 215000 | B10
89 | 335000 | B11
90 | 274000 | B12
91 | 99600 | B13

Molecular target: T1, human CD4 on cells (SKW3 cells; human …)
Test: FACS binning on SKW3 cells pre-incubated with supernatant; competitor OKT4-A488, its signal read; background 2163, max binding 8200

Row | SKW3 FACS Binning OKT4 A488 | Binder
92 | 9940 | B1
93 | 10000 | B2
94 | 9730 | B3
95 | 10800 | B4
96 | 10100 | B5
97 | 9940 | B6
98 | 9720 | B7
99 | 10100 | B8
100 | 9580 | B9
101 | 9370 | B10
102 | 10000 | B11
103 | 9420 | B12
104 | 9760 | B13

Molecular target: T1, human CD4 on cells (SKW3 cells; human …)
Test: FACS confirmation, supernatant on human PBMCs, anti-mouse Fc 647, CD4+ percent of viable cells

Row | Binder | PBMCs, anti-mFc 647 CD4+ Percent Bound of Viable [%]
105 | B1 | 32
106 | B2 | 32
107 | B3 | 31
108 | B4 | 30
109 | B5 | 31
110 | B6 | 30
111 | B7 | 33
112 | B8 | 30
113 | B9 | 31
114 | B10 | 27
115 | B11 | 30
116 | B12 | 31
117 | B13 | 6

Molecular target: T1, human CD4 on cells (SKW3 cells; human …)
Test: FACS primary screen, non-clonal hybridoma supernatant, SKW3 vs SKW3 CD4 knockout cells, anti-mouse Fc A647

Row | SKW3 WT vs KO anti-mFc-647 [fold] | Binder
118 | 3.6 | B1
119 | 4.3 | B2
120 | 4 | B3
121 | 4.6 | B4
122 | 3.9 | B5
123 | 2.9 | B6
124 | 3.7 | B7
125 | 3.4 | B8
126 | 7.2 | B9
127 | 6.4 | B10
128 | 6.6 | B11
129 | 5.8 | B12
130 | 6.8 | B13
